Data taken from paper PMC6468871.

Target: T1, RAD51 WT protein phosphorylated in vitro by c-MET kinase (human)
T1 chain: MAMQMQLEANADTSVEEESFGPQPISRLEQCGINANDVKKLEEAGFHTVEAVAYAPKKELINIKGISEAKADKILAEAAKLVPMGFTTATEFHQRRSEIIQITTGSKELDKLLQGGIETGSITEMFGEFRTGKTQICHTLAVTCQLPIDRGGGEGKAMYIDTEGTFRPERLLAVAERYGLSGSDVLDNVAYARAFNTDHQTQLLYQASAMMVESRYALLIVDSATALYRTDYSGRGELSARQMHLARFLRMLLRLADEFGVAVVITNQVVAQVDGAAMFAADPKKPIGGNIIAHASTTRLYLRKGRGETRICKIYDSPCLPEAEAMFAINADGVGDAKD
Assay: cross-linking; RAD51 10 uM with ATP 2 mM, with or without kinase-active c-MET (0.1 uM) and PHA665752 (1 uM); 20 mM BS3, room temperature, 30 min, stopped with Tris 1 M pH 8.0; SDS-PAGE 10% and western blot with anti-RAD51
Conditions: remark: other sources report otherwise

B1: RAD51 WT protein phosphorylated in vitro by c-MET kinase (natural protein)
chain: T1 chain
modifications: here or on the partner: phosphotyrosine at Y159, Y191, Y205 and Y315 (sites the paper concludes for c-MET; extent at each site not stated); phosphotyrosine at Y159, Y191, Y205 and Y315 (sites the paper concludes for c-MET; extent at each site not stated)
- fold of multimer forms against non-phosphorylated RAD51: 1.6 fold
